Source: article PMC4740876

Experiments:
[1] = molecular target: unmodified mononucleosome; test: SEC-MALS; mononucleosomes (300 pmol) with the catalytic domain of hDot1L (8.5 nmol) in 25 mM Tris-HCl, 150 mM NaCl, pH 7.8, 4 °C 30 min; Superdex 200 10/300
[2] = molecular target: mononucleosome containing H2B-Ub (ubiquitin on Lys120 of H2B by a stable isopeptide linkage) (UniProt P62807); test: as above

## cysteine-less catalytic domain of hDot1L, hDot1L(1–416)C44S/C74S/C178S (from UniProt Q8TEK3 2-417) (enzyme)
[1]
  stoichiometry N (hDot1L per mononucleosome): 1
[2]
  stoichiometry N (hDot1L per mononucleosome): 2
